Laboratory results from patent publication US20210252150A1 (VANDERBILT UNIVERSITY, published 2021).
Residue numbers refer to the chain shown, from its start. Where two headings read alike, the source gives them in different places.

How the values were obtained:
[1] = molecular target: T1, HA of A/Singapore/1/1957 (H2) (influenza A virus (H2), UniProt Q67333 16-525); test: ELISA, recombinant HA
[2] = molecular target: T2, HA of A/Hong Kong/1/1968 (H3N2) (influenza A virus (H3N2), UniProt Q91MA7 17-530); test: ELISA, recombinant HA
[3] = molecular target: T3, HA of A/turkey/Wisconsin/1/1966 (H9N2) (influenza A virus (H9N2), UniProt P03457 19-526); test: ELISA, recombinant HA
T3 sequence (P03457 19-526 limits assumed): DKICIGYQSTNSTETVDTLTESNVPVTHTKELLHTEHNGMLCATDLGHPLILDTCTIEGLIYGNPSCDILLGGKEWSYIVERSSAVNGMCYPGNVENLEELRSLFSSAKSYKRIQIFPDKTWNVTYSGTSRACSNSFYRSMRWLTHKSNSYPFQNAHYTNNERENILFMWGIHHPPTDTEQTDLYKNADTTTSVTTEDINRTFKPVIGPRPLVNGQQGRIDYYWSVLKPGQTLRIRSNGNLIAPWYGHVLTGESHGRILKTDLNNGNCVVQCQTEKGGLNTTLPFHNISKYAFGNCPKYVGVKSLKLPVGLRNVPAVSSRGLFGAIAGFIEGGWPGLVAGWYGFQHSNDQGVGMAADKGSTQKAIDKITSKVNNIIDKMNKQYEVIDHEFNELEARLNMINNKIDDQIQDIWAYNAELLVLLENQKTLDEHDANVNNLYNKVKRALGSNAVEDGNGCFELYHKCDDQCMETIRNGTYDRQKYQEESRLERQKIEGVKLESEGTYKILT

[4] = molecular target: T1, HA of A/Singapore/1/1957 (H2); test: ELISA, recombinant HA; remark: listed apart in the source
[5] = molecular target: T2, HA of A/Hong Kong/1/1968 (H3N2); test: ELISA, recombinant HA; remark: listed apart in the source
[6] = molecular target: T4, HA of A/South Carolina/1/1918 (H1N1) (influenza A virus (H1N1), UniProt Q9WFX3 18-529); test: BLI, Fab on immobilized biotinylated HA
T4 sequence (Q9WFX3 18-529): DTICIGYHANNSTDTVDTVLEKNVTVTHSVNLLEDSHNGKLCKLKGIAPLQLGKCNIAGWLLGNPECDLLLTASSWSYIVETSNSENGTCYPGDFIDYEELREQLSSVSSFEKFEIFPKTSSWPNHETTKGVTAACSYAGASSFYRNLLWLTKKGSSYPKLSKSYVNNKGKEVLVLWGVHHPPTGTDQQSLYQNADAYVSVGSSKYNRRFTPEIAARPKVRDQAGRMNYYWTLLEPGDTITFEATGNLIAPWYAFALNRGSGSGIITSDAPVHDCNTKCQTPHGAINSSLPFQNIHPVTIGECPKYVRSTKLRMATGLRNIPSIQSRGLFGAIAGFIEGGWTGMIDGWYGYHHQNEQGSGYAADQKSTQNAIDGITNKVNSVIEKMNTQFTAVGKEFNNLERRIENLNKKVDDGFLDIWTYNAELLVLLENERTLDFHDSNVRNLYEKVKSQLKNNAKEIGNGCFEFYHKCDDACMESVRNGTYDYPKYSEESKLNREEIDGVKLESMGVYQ

[7] = molecular target: T2, HA of A/Hong Kong/1/1968 (H3N2); test: BLI, Fab on immobilized biotinylated HA
[8] = molecular target: HA of A/Victoria/3/1975 (H3N2) (influenza A virus (H3N2), UniProt P03435 17-531); test: BLI, Fab on immobilized biotinylated HA
Sequence of HA of A/Victoria/3/1975 (H3N2) (P03435 17-531 limits assumed): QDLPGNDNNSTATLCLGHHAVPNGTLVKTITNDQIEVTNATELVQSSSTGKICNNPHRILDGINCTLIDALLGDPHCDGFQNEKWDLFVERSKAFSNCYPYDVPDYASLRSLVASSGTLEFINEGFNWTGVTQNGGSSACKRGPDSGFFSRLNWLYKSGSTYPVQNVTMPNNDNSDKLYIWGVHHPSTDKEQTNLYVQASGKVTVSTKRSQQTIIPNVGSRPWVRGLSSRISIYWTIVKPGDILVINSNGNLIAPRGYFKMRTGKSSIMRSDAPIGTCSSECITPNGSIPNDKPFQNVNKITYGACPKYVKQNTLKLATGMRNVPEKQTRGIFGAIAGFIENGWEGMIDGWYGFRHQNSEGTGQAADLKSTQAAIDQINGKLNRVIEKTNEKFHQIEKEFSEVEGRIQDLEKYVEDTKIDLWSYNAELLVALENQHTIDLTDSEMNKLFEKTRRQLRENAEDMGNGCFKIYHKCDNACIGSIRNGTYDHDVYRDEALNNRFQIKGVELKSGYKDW

[9] = molecular target: HA of A/Perth/16/2009 (H3N2) (influenza A virus (H3N2), UniProt O11283 17-530); test: BLI, Fab on immobilized biotinylated HA
[10] = molecular target: T4, HA of A/South Carolina/1/1918 (H1N1); test: BLI, Fab on immobilized biotinylated HA; remark: listed apart in the source
[11] = molecular target: T2, HA of A/Hong Kong/1/1968 (H3N2); test: BLI, Fab on immobilized biotinylated HA; remark: listed apart in the source
[12] = molecular target: T1, HA of A/Singapore/1/1957 (H2); test: ELISA
[13] = molecular target: T1, HA of A/Singapore/1/1957 (H2); test: ELISA; remark: listed apart in the source
[14] = molecular target: T3, HA of A/turkey/Wisconsin/1/1966 (H9N2); test: ELISA, recombinant HA; remark: listed apart in the source
[15] = molecular target: T4, HA of A/South Carolina/1/1918 (H1N1); test: BLI, 1:1 global fit; Table S2 of the text prints 46 for this strain
[16] = molecular target: T1, HA of A/Singapore/1/1957 (H2); test: ELISA; remark: listed apart in the source
[17] = molecular target: T1, HA of A/Singapore/1/1957 (H2); test: ELISA; remark: listed apart in the source
[18] = molecular target: T4, HA of A/South Carolina/1/1918 (H1N1); test: Octet (BLI) with HA
[19] = molecular target: T2, HA of A/Hong Kong/1/1968 (H3N2); test: Octet (BLI) with HA
[20] = molecular target: HA of A/Japan/305/1957 (H2N2) (influenza A virus (H2N2), UniProt P03451 16-525); test: Octet (BLI) with HA
[21] = molecular target: T3, HA of A/turkey/Wisconsin/1/1966 (H9N2); test: Octet (BLI) with HA
[22] = molecular target: T4, HA of A/South Carolina/1/1918 (H1N1); test: ELISA (highest dilution tested 1/50,000)
[23] = molecular target: T2, HA of A/Hong Kong/1/1968 (H3N2); test: ELISA (highest dilution tested 1/50,000)

B1: UCA (antibody, V domains shown)
VH: QVQLQESGPGLVKPSETLSLTCTVSGGSVSSGSYYWSWIRQPPGKGLEWIGYIYYSGSTNYNPSLKSRVTISVDTSKNQFSLKLSSVTAADTAVYYCARGTEDLGYCSGGSCPNHWGQGTLVTV
VL: not shown
EC50 [1]: 0.07 µg/mL
EC50 [2]: 0.054 µg/mL
EC50 [3]: 0.359 µg/mL
EC50 [4]: 0.028 µg/mL
EC50 [5]: 0.021 µg/mL

B2: FluA-20 UCA Fab (unmutated common ancestor of FluA-20) (Fab, V domains shown)
VH: B1 VH
VL: not shown
Kd [6]: 937 nM
Kd [7]: 486 nM
binding result [8]: no binding (tested: 2 µM)
binding result [9]: no binding (tested: 2 µM)
Kd [10]: 937 nM
Kd [11]: 486 nM

B3: FluA-20 (hybridoma-produced IgG) (antibody, V domains shown)
VH: QVQLQESGPGLVKPSETLSLTCSVSGVSVTSDIYYWTWIRQPPGKGLEWIGYIFYNGDTNYNPSLKSRVTMSIDTSKNEFSLRLTSVTAADTAVYFCARGTEDLGYCSSGSCPNHWGQGTLVTVSS
VL: DIQMTQSPSSLSASIGDRVTITCRPSQNIRSFLNWFQHKPGKAPKLLIYAASNLQSGVPSRFSGSGSGTEFTLTIRSLQPEDFATYYCQQSYNTPPTFGQGTKVEIK
EC50 [12]: 0.18 µg/mL
EC50 [13]: 0.007 µg/mL
EC50 [3]: 0.063 µg/mL
EC50 [4]: 0.009 µg/mL
EC50 [14]: 0.022 µg/mL

B4: FluA-20 Fab (Fab, V domains shown)
VH: B3 VH
VL: B3 VL
Kd [6]: 46 nM
Kd [8]: 3460 nM
Kd [10]: 46 nM
Kd [15]: ~48 nM

B5: rFluA-20 (recombinant FluA-20 IgG) (antibody, V domains shown)
VH: B3 VH
VL: B3 VL
EC50 [16]: 0.011 µg/mL
EC50 [17]: 0.011 µg/mL
EC50 [1]: 0.178 µg/mL
EC50 [3]: 0.193 µg/mL
EC50 [14]: 0.016 µg/mL

B6: H5.31 (antibody, V domains shown)
VH: EVQLVQSGGGLVQPGGSLRLSCEASRFTSSSYWITWVRQAPGKGLEWVANIKQDGSEKYFVDSVKGRFTISRDNASNSLYLQMSSLRAEDTAVYYCARGFLERLLLGRQGAYYYGMDVWGQGTTVTVSS
VL: DIQMTQSPSSLSASVGDRVTMTCRASQSISSSLNWYQQKPGKAPKLLIYAASNLQSGVPSRFSGSGSGTDFTLTISSLQPEDFATYYCQQSYTMPPELTFGGGTKVQIK
Kd [18]: 0.17 nM
Kd [19]: 5.4 nM
Kd [20]: 0.13 nM
Kd [21]: 17 nM
EC50 [22]: 0.031 µg/mL
EC50 [23]: 0.024 µg/mL

B7: H5.28 (antibody, V domains shown)
VH: EVQLVESGGGLVQPGGSLRLSCAASGFTFSTYWMTWVRQAPGKGLEWVANINQDGGEKYFVDSVKGRFTISRDNAKNSLFLQMNTLRAEDTAVYYCARGFLERLLLGRQGAYYYGMDVWGQGTTVTVSS
VL: B6 VL with T20S, S28I, T93S, M94T, Q107E
Kd [18]: 0.11 nM
Kd [19]: 75 nM
Kd [20]: 0.19 nM
Kd [21]: 65 nM
EC50 [22]: 0.081 µg/mL
EC50 [23]: 16 µg/mL
